Literature values, collected in patent publication US20250352622A1, “GLP-1 FORMULATIONS AND THEIR USES” (Rose Pharma Inc., priority 2024, published 2025).
Where two headings read alike, the source gives them in different places.

dulaglutide
t1/2 (longer acting GLP-1 agonist): about 90 hours

lixisenatide
half-life (in vivo): about 3 hours

semaglutide
t1/2 (in vivo): about 1 week

tirzepatide
t1/2 (in vivo): about 5 days
